Values belong to the binder of their own block, whether it stands above or below them.
Legend:
Assay in all cases: holdup assay
Parameters in all cases: key: below the threshold = too weak to quantify, mostly under pKd 3.1 to 4
GRIP2_4, Q9C0E4 = biological target: GRIP2_4, Q9C0E4
IL16_3, Q14005 = biological target: IL16_3, Q14005
FRMPD2_3, Q68DX3 = biological target: FRMPD2_3, Q68DX3
DLG4_3, P78352 = biological target: DLG4_3, P78352
DLG1_2, Q12959 = biological target: DLG1_2, Q12959
HTRA2, O43464 = biological target: HTRA2, O43464
SYNJ2BP, P57105 = biological target: T1, SYNJ2BP, P57105
T1 sequence (P57105 8-110, limits assumed, looked up): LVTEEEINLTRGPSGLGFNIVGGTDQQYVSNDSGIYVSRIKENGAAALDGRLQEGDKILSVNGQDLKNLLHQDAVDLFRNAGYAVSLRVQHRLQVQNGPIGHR

MPP7, Q5T2T1 = biological target: T2, MPP7, Q5T2T1
T2 sequence (Q5T2T1 134-230, limits assumed, looked up): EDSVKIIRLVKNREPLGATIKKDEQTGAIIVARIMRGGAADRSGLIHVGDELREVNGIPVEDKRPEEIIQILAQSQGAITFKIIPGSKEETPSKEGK

GRID2IP_2, A4D2P6 = biological target: GRID2IP_2, A4D2P6
IL16_1, Q14005 = biological target: IL16_1, Q14005
PDZD7_3, Q9H5P4 = biological target: T3, PDZD7_3, Q9H5P4
T3 sequence (Q9H5P4 857-944, limits assumed, looked up): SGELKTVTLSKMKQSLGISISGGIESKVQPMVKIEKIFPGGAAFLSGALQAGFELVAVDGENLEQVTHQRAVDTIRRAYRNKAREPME

FRMPD2_1, Q68DX3 = biological target: FRMPD2_1, Q68DX3
SNX27, Q96L92 = biological target: SNX27, Q96L92
CARD11, Q9BXL7 = biological target: T4, CARD11, Q9BXL7
T4 sequence (Q9BXL7 662-765, limits assumed, looked up): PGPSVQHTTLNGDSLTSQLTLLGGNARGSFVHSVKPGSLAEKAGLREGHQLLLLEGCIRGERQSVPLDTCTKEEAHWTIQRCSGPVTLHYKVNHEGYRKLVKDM

GRIP2_7, Q9C0E4 = biological target: GRIP2_7, Q9C0E4
DVL3, Q92997 = biological target: T5, DVL3, Q92997
T5 sequence (Q92997 244-331, limits assumed, looked up): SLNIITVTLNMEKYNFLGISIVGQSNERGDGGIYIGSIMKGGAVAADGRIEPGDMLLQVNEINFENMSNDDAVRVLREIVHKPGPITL

NHERF4_2, Q86UT5 = biological target: NHERF4_2, Q86UT5
SNTG2, Q9NY99 = biological target: T6, SNTG2, Q9NY99
T6 sequence (Q9NY99 68-166, limits assumed, looked up): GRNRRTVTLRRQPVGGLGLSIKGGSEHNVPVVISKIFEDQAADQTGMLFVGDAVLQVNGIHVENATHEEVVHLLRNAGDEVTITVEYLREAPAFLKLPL

Inadl_2, Q8NI35 = biological target: Inadl_2, Q8NI35
NHERF4_1, Q86UT5-2 = biological target: NHERF4_1, Q86UT5-2
GRIP1_7, Q9Y3R0 = biological target: T7, GRIP1_7, Q9Y3R0
T7 sequence (Q9Y3R0 999-1096, limits assumed, looked up): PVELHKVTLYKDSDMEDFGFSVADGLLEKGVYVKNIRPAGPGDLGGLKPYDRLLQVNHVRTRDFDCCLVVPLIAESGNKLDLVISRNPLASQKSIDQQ

MAGI1_2, Q96QZ7 = biological target: MAGI1_2, Q96QZ7
MAST1, Q9Y2H9 = biological target: MAST1, Q9Y2H9
GRIP1_3, Q9Y3R0 = biological target: T8, GRIP1_3, Q9Y3R0
T8 sequence (Q9Y3R0 247-346, limits assumed, looked up): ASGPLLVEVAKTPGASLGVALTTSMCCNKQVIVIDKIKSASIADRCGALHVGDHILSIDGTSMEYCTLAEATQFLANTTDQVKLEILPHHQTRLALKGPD

DLG4_2, P78352 = biological target: DLG4_2, P78352
NHERF4_4, Q86UT5 = biological target: NHERF4_4, Q86UT5
GRIP1_4, Q9Y3R0 = biological target: T9, GRIP1_4, Q9Y3R0
T9 sequence (Q9Y3R0 467-571, limits assumed, looked up): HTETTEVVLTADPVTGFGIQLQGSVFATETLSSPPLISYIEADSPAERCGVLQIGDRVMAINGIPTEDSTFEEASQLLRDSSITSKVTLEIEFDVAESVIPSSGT

LIN7A, O14910 = biological target: T10, LIN7A, O14910
T10 sequence (O14910 103-200, limits assumed, looked up): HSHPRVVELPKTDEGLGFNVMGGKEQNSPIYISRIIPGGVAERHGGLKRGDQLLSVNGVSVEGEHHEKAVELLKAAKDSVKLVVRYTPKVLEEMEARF

[1] = plain residues with an end cap or a label only (N-terminal biotin on a linker: ado-ado)
[2] = plain residues with an end cap or a label only (N-terminal biotin on a linker: ahx)

Chain of DLG1_2, Q12959 (Q12959 314-412): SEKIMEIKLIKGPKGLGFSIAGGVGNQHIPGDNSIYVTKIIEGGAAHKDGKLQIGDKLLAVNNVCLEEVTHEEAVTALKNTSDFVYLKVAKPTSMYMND
Chain of MAGI1_2, Q96QZ7 (Q96QZ7 456-580): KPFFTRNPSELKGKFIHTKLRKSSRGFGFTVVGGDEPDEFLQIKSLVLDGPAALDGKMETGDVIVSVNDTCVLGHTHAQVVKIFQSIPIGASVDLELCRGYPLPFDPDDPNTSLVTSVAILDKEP
Chain of FRMPD2_1, Q68DX3 (Q68DX3 770-861): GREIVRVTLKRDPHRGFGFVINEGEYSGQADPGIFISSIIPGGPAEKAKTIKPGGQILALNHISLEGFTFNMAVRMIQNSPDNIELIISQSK
Chain of IL16_1, Q14005 (Q14005 210-306): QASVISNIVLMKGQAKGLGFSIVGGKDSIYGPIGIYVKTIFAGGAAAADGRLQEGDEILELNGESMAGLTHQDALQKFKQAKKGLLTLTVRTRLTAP
Chain of HTRA2, O43464 (O43464 355-458): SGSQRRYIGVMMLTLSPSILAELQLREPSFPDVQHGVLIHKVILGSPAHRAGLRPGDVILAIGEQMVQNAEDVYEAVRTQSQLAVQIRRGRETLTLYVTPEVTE
Chain of DLG4_2, P78352 (P78352 155-259): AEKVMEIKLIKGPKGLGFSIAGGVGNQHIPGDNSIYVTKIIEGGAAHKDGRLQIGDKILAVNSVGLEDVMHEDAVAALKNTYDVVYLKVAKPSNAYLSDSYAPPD
Chain of MAST1, Q9Y2H9 (Q9Y2H9 962-1065): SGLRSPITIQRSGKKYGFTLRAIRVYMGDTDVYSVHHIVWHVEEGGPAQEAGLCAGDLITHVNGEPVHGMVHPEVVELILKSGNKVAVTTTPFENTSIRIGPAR
Chain of IL16_3, Q14005 (Q14005 1107-1207): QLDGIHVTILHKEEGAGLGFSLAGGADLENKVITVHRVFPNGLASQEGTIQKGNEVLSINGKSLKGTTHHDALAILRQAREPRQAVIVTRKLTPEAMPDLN
Chain of NHERF4_1, Q86UT5-2 (Q86UT5 other isoform, or with tags, fused parts or gaps): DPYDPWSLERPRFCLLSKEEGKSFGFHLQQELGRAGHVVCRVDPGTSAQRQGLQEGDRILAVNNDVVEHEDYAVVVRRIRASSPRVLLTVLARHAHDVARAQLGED
Chain of GRIP2_7, Q9C0E4 (Q9C0E4 934-1023): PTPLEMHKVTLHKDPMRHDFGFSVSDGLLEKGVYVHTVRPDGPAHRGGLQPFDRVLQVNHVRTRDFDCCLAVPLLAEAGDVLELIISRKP
Chain of FRMPD2_3, Q68DX3 (Q68DX3 1073-1166): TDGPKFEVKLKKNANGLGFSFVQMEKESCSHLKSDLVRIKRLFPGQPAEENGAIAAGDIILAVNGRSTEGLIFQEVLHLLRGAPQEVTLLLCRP
Chain of NHERF4_4, Q86UT5 (Q86UT5 464-550): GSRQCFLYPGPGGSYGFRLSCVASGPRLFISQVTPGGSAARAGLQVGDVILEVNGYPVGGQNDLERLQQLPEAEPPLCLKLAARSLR
Chain of GRID2IP_2, A4D2P6 (A4D2P6 272-370): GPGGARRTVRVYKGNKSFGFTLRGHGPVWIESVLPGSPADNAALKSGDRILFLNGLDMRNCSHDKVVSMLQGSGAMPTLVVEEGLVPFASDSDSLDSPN
Chain of GRIP2_4, Q9C0E4 (Q9C0E4 446-548): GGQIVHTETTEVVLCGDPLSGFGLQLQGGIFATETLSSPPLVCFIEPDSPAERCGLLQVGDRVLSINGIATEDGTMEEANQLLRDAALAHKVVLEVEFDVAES
Chain of DLG4_3, P78352 (P78352 306-403): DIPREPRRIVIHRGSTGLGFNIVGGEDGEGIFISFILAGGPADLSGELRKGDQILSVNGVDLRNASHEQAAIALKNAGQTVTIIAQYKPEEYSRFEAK
Chain of NHERF4_2, Q86UT5 (Q86UT5 220-308): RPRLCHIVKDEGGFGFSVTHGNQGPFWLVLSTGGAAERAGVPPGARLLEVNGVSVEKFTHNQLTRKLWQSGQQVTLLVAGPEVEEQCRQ
Chain of Inadl_2, Q8NI35 (Q8NI35 238-335): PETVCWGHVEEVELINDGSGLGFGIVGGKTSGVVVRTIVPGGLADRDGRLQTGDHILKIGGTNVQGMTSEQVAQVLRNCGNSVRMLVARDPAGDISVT

- pKd (GRIP2_4, Q9C0E4; [1]): below the threshold
- pKd (IL16_3, Q14005; [1]): below the threshold
- pKd (FRMPD2_3, Q68DX3; [1]): 3.49
- pKd (DLG4_3, P78352; [1]): below the threshold
- pKd (DLG1_2, Q12959; [1]): below the threshold
- pKd (HTRA2, O43464; [1]): 3.51
- pKd (SYNJ2BP, P57105; [1]): below the threshold
- pKd (MPP7, Q5T2T1; [1]): 3.53
- pKd (GRID2IP_2, A4D2P6; [1]): below the threshold
- pKd (IL16_1, Q14005; [1]): below the threshold
- pKd (PDZD7_3, Q9H5P4; [1]): 4.15
- pKd (FRMPD2_1, Q68DX3; [1]): below the threshold
- pKd (SNX27, Q96L92; [1]): 3.94
- pKd (CARD11, Q9BXL7; [1]): below the threshold
- pKd (GRIP2_7, Q9C0E4; [1]): 3.94
- pKd (DVL3, Q92997; [1]): 4.48
- pKd (NHERF4_2, Q86UT5; [1]): below the threshold
- pKd (SNTG2, Q9NY99; [1]): below the threshold
- pKd (Inadl_2, Q8NI35; [1]): 4.09
- pKd (NHERF4_1, Q86UT5-2; [1]): 3.89
- pKd (GRIP1_7, Q9Y3R0; [1]): below the threshold
- pKd (MAGI1_2, Q96QZ7; [1]): below the threshold
- pKd (MAST1, Q9Y2H9; [1]): 3.96
- pKd (GRIP1_3, Q9Y3R0; [1]): below the threshold
- pKd (DLG4_2, P78352; [1]): 3.51
- pKd (NHERF4_4, Q86UT5; [1]): 4.1
- pKd (GRIP1_4, Q9Y3R0; [1]): below the threshold
- pKd (LIN7A, O14910; [1]): below the threshold
Binder: SLNANEVEWF [RNF130, Q86XS8]

- pKd (GRIP2_4, Q9C0E4; [2]): below the threshold
- pKd (IL16_3, Q14005; [2]): below the threshold
- pKd (FRMPD2_3, Q68DX3; [2]): below the threshold
- pKd (DLG4_3, P78352; [2]): below the threshold
- pKd (DLG1_2, Q12959; [2]): below the threshold
- pKd (HTRA2, O43464; [2]): below the threshold
- pKd (SYNJ2BP, P57105; [2]): below the threshold
- pKd (MPP7, Q5T2T1; [2]): below the threshold
- pKd (GRID2IP_2, A4D2P6; [2]): below the threshold
- pKd (IL16_1, Q14005; [2]): below the threshold
- pKd (PDZD7_3, Q9H5P4; [2]): below the threshold
- pKd (FRMPD2_1, Q68DX3; [2]): below the threshold
- pKd (SNX27, Q96L92; [2]): 3.68
- pKd (CARD11, Q9BXL7; [2]): below the threshold
- pKd (GRIP2_7, Q9C0E4; [2]): below the threshold
- pKd (DVL3, Q92997; [2]): below the threshold
- pKd (NHERF4_2, Q86UT5; [2]): below the threshold
- pKd (SNTG2, Q9NY99; [2]): below the threshold
- pKd (Inadl_2, Q8NI35; [2]): below the threshold
- pKd (NHERF4_1, Q86UT5-2; [2]): below the threshold
- pKd (GRIP1_7, Q9Y3R0; [2]): below the threshold
- pKd (MAGI1_2, Q96QZ7; [2]): below the threshold
- pKd (MAST1, Q9Y2H9; [2]): below the threshold
- pKd (GRIP1_3, Q9Y3R0; [2]): below the threshold
- pKd (DLG4_2, P78352; [2]): below the threshold
- pKd (NHERF4_4, Q86UT5; [2]): below the threshold
- pKd (GRIP1_4, Q9Y3R0; [2]): below the threshold
- pKd (LIN7A, O14910; [2]): below the threshold
Binder: EKQAKGDTEF [CACYBP, Q9HB71]

- pKd (GRIP2_4, Q9C0E4; [1]): below the threshold
- pKd (IL16_3, Q14005; [1]): below the threshold
- pKd (FRMPD2_3, Q68DX3; [1]): below the threshold
- pKd (DLG4_3, P78352; [1]): 3.79
- pKd (DLG1_2, Q12959; [1]): 5.12
- pKd (HTRA2, O43464; [1]): below the threshold
- pKd (SYNJ2BP, P57105; [1]): 4.3
- pKd (MPP7, Q5T2T1; [1]): below the threshold
- pKd (GRID2IP_2, A4D2P6; [1]): below the threshold
- pKd (IL16_1, Q14005; [1]): 3.61
- pKd (PDZD7_3, Q9H5P4; [1]): 4.67
- pKd (FRMPD2_1, Q68DX3; [1]): 3.54
- pKd (SNX27, Q96L92; [1]): 4.62
- pKd (CARD11, Q9BXL7; [1]): below the threshold
- pKd (GRIP2_7, Q9C0E4; [1]): below the threshold
- pKd (DVL3, Q92997; [1]): below the threshold
- pKd (NHERF4_2, Q86UT5; [1]): below the threshold
- pKd (SNTG2, Q9NY99; [1]): 4.26
- pKd (Inadl_2, Q8NI35; [1]): below the threshold
- pKd (NHERF4_1, Q86UT5-2; [1]): below the threshold
- pKd (GRIP1_7, Q9Y3R0; [1]): below the threshold
- pKd (MAGI1_2, Q96QZ7; [1]): 4.47
- pKd (MAST1, Q9Y2H9; [1]): 4.4
- pKd (GRIP1_3, Q9Y3R0; [1]): below the threshold
- pKd (DLG4_2, P78352; [1]): 4.92
- pKd (NHERF4_4, Q86UT5; [1]): below the threshold
- pKd (GRIP1_4, Q9Y3R0; [1]): below the threshold
- pKd (LIN7A, O14910; [1]): below the threshold
Binder: KPGKGSETVV [FZD4, Q9ULV1]

Source: publication PMC9482650, “Quantitative fragmentomics allow affinity mapping of interactomes” (Nature Communications, 2022)
